Reference: paper PMC6070508, “Structural basis for selective inhibition of immunoglobulin E-receptor interactions by an anti-IgE antibody” (Scientific Reports, 2018)
Several values for one entry are separate records, joined by “and”; a condition that tells them apart may be missing. Identical values can stand only once.

Tests used:
8D6 Fab = biological target: T1, 8D6 Fab; assay: SPR; Biacore T200; 8D6 Fab amine-coupled to a CM5 chip; His-tagged IgE-Fc injected at 100 nM to 190 pM (2-fold dilutions) in HBS-P (10 mM HEPES pH 7.4, 150 mM NaCl, 0.005% surfactant P20), 30 uL/min; constants from low and intermediate concentrations; details: both partners purified
T1 construct: In SPR it was amine-coupled to a CM5 chip or injected as analyte; also called recombinant 8D6 Fab; anti-IgE antibody Fab (8D6)
T1 sequence (heavy, as listed by the source, chain 1 of 2): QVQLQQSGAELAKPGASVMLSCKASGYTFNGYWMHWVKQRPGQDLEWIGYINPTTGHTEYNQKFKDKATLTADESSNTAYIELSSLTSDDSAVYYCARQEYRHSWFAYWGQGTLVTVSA
T1 sequence (light, as listed by the source, chain 2 of 2): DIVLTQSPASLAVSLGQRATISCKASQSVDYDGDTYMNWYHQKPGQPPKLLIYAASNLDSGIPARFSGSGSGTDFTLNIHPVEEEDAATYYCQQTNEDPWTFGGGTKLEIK

derCD23 = biological target: T2, derCD23 (human); assay: SPR; N-terminally His-tagged IgE-Fc captured with an anti-His-tag antibody (Biacore His Capture Kit); derCD23 injected at 10 to 0.156 uM; HBS-P with 5 mM CaCl2, 25 °C; details: both partners purified
T2 construct: human CD23 (FcεRII), soluble monomeric fragment called derCD23; also called soluble, monomeric CD23 construct; soluble fragment of CD23
T2 sequence (P06734 whole entry, looked up): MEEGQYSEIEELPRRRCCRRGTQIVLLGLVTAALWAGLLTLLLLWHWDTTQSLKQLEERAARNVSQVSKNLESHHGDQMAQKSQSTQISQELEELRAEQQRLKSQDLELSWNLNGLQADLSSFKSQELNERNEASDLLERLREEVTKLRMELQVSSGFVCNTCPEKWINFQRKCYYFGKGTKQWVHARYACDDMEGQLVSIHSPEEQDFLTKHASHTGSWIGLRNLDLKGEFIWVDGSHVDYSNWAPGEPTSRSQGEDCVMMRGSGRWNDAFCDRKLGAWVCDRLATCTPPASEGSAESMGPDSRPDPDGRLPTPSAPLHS

B1: His-tagged IgE-Fc (domain or fragment)
chain: VASRDFTPPTVKILQSSCDGGGHFPPTIQLLCLVSGYTPGTIQITWLEDGQVMDVDLSTASTTQEGELASTQSELTLSQKHWLSDRTYTCQVTYQGHTFEDSTKKCADSNPRGVSAYLSRPSPFDLFIRKSPTITCLVVDLAPSKGTVQLTWSRASGKPVNHSTRKEEKQRNGTLTVTSTLPVGTRDWIEGETYQCRVTHPHLPRALMRSTTKTSGPRAAPEVYAFATPEWPGSRDKRTLACLIQNFMPEDISVQWLHNEVQLPDARHSTTQPRKTKGSGFFVFSRLEVTRAEWEQKDEFICRAVHEAASPSQTVQRAVSVNPGK
modifications: disulfide-linked homodimer; N-glycosylated at Asn394 (high-mannose); N-terminal 6xHis/Xpress tag omitted; C225A, N265Q and N371Q taken as already in the deposited entity; C-terminal end taken from …
**Q.** B1 was tested. Which Kd (8D6 Fab) did it give?
**A.** The Kd was roughly 0.02 nM.

**Q.** And the koff (8D6 Fab)?
**A.** Its koff is 8e-05 s⁻¹.

**Q.** And the kon (8D6 Fab)?
**A.** The kon was 5e+06 M⁻¹ s⁻¹.

**Q.** And the Kd (derCD23)?
**A.** Its Kd is 1800 nM and 1700 nM and 1600 nM.
